Data from the DeepSol protein solubility set.

Assay: soluble on expression in E. coli; label from the status in PepcDB or PDB records

Sequence | soluble on expression in E. coli
MTDHSNTRVVVGMSGGVDSSVVALLLKQQGYDVVGVFMKNWDDTDENGVCTATEDYKDVAKVADKIGIPYYSINFEKEYWDRVFTYFLDEYKKGRTPNPDVICNKEIKFKAFLDYAMDLGADYIATGHYARLQHDEDGTMHLLRGVDSNKDQTYFLSQLDSKTLQKVMFPLGEMVKPDVRKLALNAGLATAKKKDSVGICFIGEKNFKEFLGHYLPATPGKMMTFDGQVKGEHAGLMYYTIGQRRGLGIGGDGEDNEPWFVVGKDLKKNILYVGKGYHNPHLYATHLKASDLHFVTDEDLGNDFHVTAKFRYRQKDSGVTVHFNDDHTEVTVTFDDPVRAITPGQAVVFYNGEECLGSGMIDAAYNDERVLQYVLEHHHHHH | not soluble
MTDMTYTIALMGNPNTGKSTLFNVLTGLRQHTGNWPGKTVTHAEGECRHRGTLYRIVDLPGTYSLYSNSADEEVARDFLLFQRPDVTIVVVDATALERNLNLALQVLEMTDRVIIAINLMDEAKKKGIHINTKKLAAKLGVPVVPISARNREGIDALLDTVDAMAHGRINTNPLSIRYSPEIERGIAKLLPLVKDVMGDTYPARWIALRLLDGDTSLLQALKQPPQPLIKEGNAYACCGSVKSV | not soluble
MTDNSQFHAASALVQAAHTVSVVGHLRPDADAIGSVAATVAALQQLGKDAVGAIGQLDSMPENLYTIPGASNIKFGDSLPESDLIIVVDCGSIERTGAFESIIVNNPDKVLVVDHHATNPGFGAVNLIDVEAESTTTILYDWFDAMSVQITPDIAHGLYAGLLTDTGCFRWGRPVMHDMAKELMEFGLDIRAISSALLDQTSVDDLRLVGQIVSRIELREAGPYTLAVLVADFDTINGRSRAVVEGLIEMVRAVEGADFGAVFKEYERGVYTVSLRSSNLSVASLAVHLGGGGHIPAAGYTARGTEIEALDTLIEATVTLGESLRSSAHVDVLEHHHHHH | soluble
MTDQIKTDNARSKAEQLPLAFSHQSASGREDLLVSASLAAAVSLVDEWPNWPSPVVVLAGPPGSGKSHLANIWKNISDARDIHPEAGADAARAAETGPVLFEDADRRGFDDTELFHVINSVRQHGTTLLMTSRQWPAAWPVTLPDLRSRLKAVTVVETGEPDEGLLAQVLVKLFADRQLYMDDKLIGYIVNRMERSLDTAQTIVEQIDHLALSRATRITRPLVAEVLNAMDKAAAGDGSDID | not soluble
MTDQPDLFGLAPDAPRPIIPANLPEDWQEALLPEFSAPYFHELTDFLRQERKEYTIYPPAPDVFNALRYTPLGEVKVLILGQDPYHGPNQAHGLSFSVRPGVRVPPSLRNIYKELTEDIPGFVAPKHGYLRSWAEQGVLLLNAVLTVRAGQANSHQGKGWEHFTDAVIKAVNAKEERVVFILWGSYARKKKKLITGKNHVVIESGHPSPLSEQYFFGTRPFSKTNEALEKAGRGPVEWQLPATVTEE | soluble
MTDRYTIHSQLEHLQSKYIGTGHADTTKWEWLVNQHRDSYCSYMGHFDLLNYFAIAENESKARVRFNLMEKMLQPCGPPADKPEEN | soluble
MTDSKYDYSDITPVDINTEEPQICQILYDEDYKQIMGLLLALMKAEEYSERALHITELGINELASHYTIWIYRFNILKNLPNRNLYDELDWCEEIALDNEKNYQIWNYRQLIIGQIMELNNNDFDPYREFDILEAMLSSDPKNHHVWSYRKWLVDTFDLHNDAKELSFVDKVIDTDLKNNSAWSHRFFLLFSKKHLATDNTIDEELNYVKDKIVKCPQNPSTWNYLLGIHERFDRSITQLEEFSLQFVDLEKDQVTSSFALETLAKIYTQQKKYNESRTVYDLLKSKYNPIRSNFWDYQISKLTSV | soluble
MTEAQLTLPTTKLSPTQKTQFIKLEKKLRRNVGQAIAQYNMIEDGDKVMVCLSGGKDSYAMLSILMLLKESAPIHFDIIAVNLDQKQPGFPEHILPEYLDKLGIEYHIVEEDTYGIVKEKVPEGKTTCSLCSRLRRAVLYKAAKKIGATKIALGHHRDDMIETLMLNMFYGGKMKAMPAKLVSDNGEHVVIRPLAFCKESELIQYSELKHFPIIPCNL | not soluble
